According to US20220411516A1 (Amgen, published 2022):

Molecular target: T1, EGFRvIII (Epidermal Growth Factor Receptor Variant III) (human, UniProt P00533 298-1210)
T1 construct: also called Human EFGRvIII; de2-7EGFR
Test: IHC staining, titration of the primary antibody (5.5, 2.75, 1.375 µg/ml)

B1: EGFRvIII antibody 1 (antibody, mouse IgG1, kappa, V domains shown)
VH: QVQLVESGGGVVQPGRSLRLSCAASGFTFSSYGMHWVRQAPGKGLEWVAVIWYDGSNKYYVDSVKGRFTISRDNSKNTLYLQMNSLRAEDTAVYYCARDGWQQLAPFDYWGQGTLVTVSA
VL: not shown
notes: also called first antibody; primary antibody
Question: Does B1 bind?
Answer: Result: binds
